Experimental data published in a protein production outcome set (Wang et al. 2014).

Test: label from the status in PepcDB records
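Note: failed if final PepcDB status was selected cloned or expressed and not failed if soluble or beyond.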

| Sequence | protein production |
| --- | --- |
| MKWPWWPVCVPLSKRLTLPLPSTANPVVQPSRLALACANRLFEAADNRERFLQALMTPPAYPATVLWCGEPAAALPFAALPPLPWQPPWVSRFVAGSPTGQHPLHAAGAYYCLDSSSVFAAVPLLTLPQEPSLVIDVCAAPGGKSLFAWRSLHPRYLICNETIGKRVGKLIGNLKRCRVHPVGVTSWDSEVLAAEFQGTADVVIVDAPCSGQSLLAKGQKAEGCFHPLTIRHNQRRQKRILAAATTLVRPGGWLLYSTCTFSQDENEDVAAWLMAKFPHLLPQPVPALAAYQSHLAAFPCYRLWPHQGEGAGAFTILWQHQGKGESNPLPDLGNRRAFGDRWRWQSSSQPA | failed |
| MTIADIVMLTATIIIWSLLIVNILLVIFGYVYYLKTDPVAPPPVEDEDAPFVSIMVPAHNEGIVIVRTVEALLNFNYPQDRYEIIVINDNSSDNSAELLANVQKKAVNRNLQIINTDNITGGKGKSNALNIGFKQAKGDVIAIYDADNTPEPNALRYLVGELIASEEYGAVIGKFRTRNRNASLLTRFINIETLAFQWMAQAGRFQLFKLCTIPGTNFIVRRSIIEAIGGWDDKALAEDTEISFRIYMMGYKIKFQPKAVTWEQEPQTLSVWFRQRTRWVKGNIYVIVKNAKLLFNPKASRIRFDILYFLSIYFLLMTSLVLSDIMLVLSMSGYLTTTLQGFSNSLWLLAILLFIFSTFVSITTEKGEMTLENILIIALMYITYSQMWLVVAAYGMVMYIKENVFHKQTQTKWYKTERFK | failed |
| MPVKKLKQFLDSHKIKYLSIAHSPAYTAQEIAASAHVSGKQLAKTVIIKMDGRLAMVVLPASDHITFMKLKEAIGTSDLELATESEFEGKFAECDVGAMPPFGNLYGLPVLVSTKLSAQDNILFNAGSHSELMQLSFGDFEKLVKPTLVTL | not failed |
| LAQEKNYDLPEGVMVYVIEGPFFFGAVETFQSALANTHTDPKVLIIRMRWVPFIDVTGLQAMEEIILNLQKRGVRVLLSEANPLVDAKLRKMGIVQLIGEQNYYKEFSQALDVCRINDSDRKSQPPFEVAKPLASVTQ | not failed |
| MKILAIINPISGIGSKSNIPSLIADVFAHDPHELFITYSQRAGHARELAAQAVEKHYDCVIAVGGDGTVNEIAQSLRYTDVVLGIVPKGSGNGLARALKLPLTVGKALEVIRAGHVRTIDCCEADSR | failed |
| MKVIKSNKVTNKFKVSILISTYNKEKFIENTLNNILAQTMNKNDFELIIVDDCSTDNTLDIISKKIESFSNYQFVQLDENSGTPAKPRNLSIDLSKGKYIMFVDGDDWLPSDALENLYTLLKSNKTDYATGLTKYVYSDRIARSGVALSKIAYNKIGLKNFRKSFYHLAPAGRMMKSSVIKKNNIRFPEMIFGEDLQFFAEVFFNTKNISTTQDVVYCANRYDENISLVKSEASTVLNRIKWQNEAYRYLTKKYKNNKIFANLLYRIINKDILEGKFYKKGFIKEIDTLLPVFQDILNTIDNDFNSLDYADDTLNQHALTLIKNGDKEEIIDFVNFYLKKDEKPLYLSNDKYYYVYKENKYKKRMHIILQKIIKKDENIFLKLYSKNSELKYLEIKNRKDPTNYTVLEIKKHLFKTGEYTVQFKANELSKGKLALTVLDKDLNGAAIKSGMQFDFYETVNGNLGYIKKLEHHHHHH | not failed |
| MGSSHHHHHHSSGLVPRGSTETSQQLQLRVQGKEKHQTLEVSLSRDSPLKTLMSHYEEAMGLSGRKLSFFFDGTKLSGRELPADLGMESGDLIEVWG | not failed |
| VPRIAEVRDAAEPSSEEQRARHVRMLEAAIELATEKELARVQMHEVAKRAGVAIGTLYRYFPSKTHLFVAVMVDQIDRMGVGFKKSAPPGESPQDAVYNVLVRATRGLLRRPALSTAMIQSTSTANVASVPDAGKVDRAFRQIMLDAAGIEHPTEEDLTALRLLVQLWFGVIQSCLNGRVSIPDAESDIRRACDLLLVNLSHR | not failed |
| MKQSKIIVAGIGPGSEQDITPAVLAAVREADVVVGYKYYFRFIRDFVRPDAECIDTGMKRERARAEQAFEYAEQGKTVCVISSGDAGIYGMTPLIYEMKRERQSNVEIIALPGI | failed |
| MSKLAQIVQKLKKQGIEAAVLSDPVSINYLTGFYSDPHERLMFLFLFADQEPLLFLPELDALRAKSILDISVTGYLDFENPLEKIKTLLPKTNYSKIALEFDNLNVTKFKGLETIFSGQFTNLTPLINRMR | not failed |
| MSILVIGANGGVGSKLVSQLNEEHVDFTAGVRKEDQVKELENKGIKATLIDVEKNSINDLKNIFTDYDKVIFSVGSGGSTGADKTIIVDLDGAVKTIKASKEAGIKHYVMVSTYDSRREAFDASGDLKPYTIAKHYADDYLRTSDLNYTIVHPGSLTDDAGTGKIEADLYFDKAGSIPREDVATVLKEVVTSDGFNNQEFQILSGNHGVKDALKNYESLEHHHHHH | not failed |
